This assay addresses T1, recombinant CD3 epsilon (Homo sapiens (species ; human …, UniProt P07766).
T1 construct: recombinant CD3 epsilon (Sigma-Aldrich); No catalogue number is printed; source: bought: Sigma-Aldrich
The experiment in a line: ELISA; indirect ELISA; 0.5 µg recombinant CD3 epsilon coated overnight at 4 °C; 500 µg/ml protein of total cell lysate, periplasmic or cytoplasmic fraction with the scFv, 37 °C 1 h; detected with HRP-conjugated anti-E tag, A405; signals of the negative protein and of BSA-coated wells subtracted. The conditions noted are these: one partner purified.

From article PMC12148185, “Combining CD3/GD2 bispecific T cell engager with human Vγ9Vδ2 T cells facilitates neuroblastoma cell targeting and killing in vitro” (PLOS One, 2025) come the findings set out here.

T1 sequence (P07766 23-126): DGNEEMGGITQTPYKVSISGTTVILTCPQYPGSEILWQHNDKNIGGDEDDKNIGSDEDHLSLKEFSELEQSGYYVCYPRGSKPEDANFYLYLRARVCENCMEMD

B1: human scFv CD3 clone 18 (scFv, V domains shown)
VH: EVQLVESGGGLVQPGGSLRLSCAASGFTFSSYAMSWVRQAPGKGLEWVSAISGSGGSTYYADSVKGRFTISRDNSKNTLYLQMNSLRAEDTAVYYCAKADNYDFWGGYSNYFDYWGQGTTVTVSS
VL: EIVMTQSPATLSVSPGERATLSCTASQSVRNNLAWYQQKPGQPPRLLIYGASTRATGIPARFSGSRSGTEFTLTISSLQSEDFGVYYCQQYNNWPRTFGQGTKVEIK
notes: selected from a naive human scFv M13 phage library; About 28 kDa on Western blot; source: E. coli HB2151, IPTG-induced; total cell lysate, periplasmic fraction or cytoplasmic fraction
In the case of B1, the binding result was “binds”.
